Molecular target: ErbB4 (full-length, expressed in mammalian cells) (human) (UniProt Q15303)
Experiment: cell-based or functional assay

Sequence of ErbB4 (full-length, expressed in mammalian cells) (human) (Q15303 26-1308 limits assumed): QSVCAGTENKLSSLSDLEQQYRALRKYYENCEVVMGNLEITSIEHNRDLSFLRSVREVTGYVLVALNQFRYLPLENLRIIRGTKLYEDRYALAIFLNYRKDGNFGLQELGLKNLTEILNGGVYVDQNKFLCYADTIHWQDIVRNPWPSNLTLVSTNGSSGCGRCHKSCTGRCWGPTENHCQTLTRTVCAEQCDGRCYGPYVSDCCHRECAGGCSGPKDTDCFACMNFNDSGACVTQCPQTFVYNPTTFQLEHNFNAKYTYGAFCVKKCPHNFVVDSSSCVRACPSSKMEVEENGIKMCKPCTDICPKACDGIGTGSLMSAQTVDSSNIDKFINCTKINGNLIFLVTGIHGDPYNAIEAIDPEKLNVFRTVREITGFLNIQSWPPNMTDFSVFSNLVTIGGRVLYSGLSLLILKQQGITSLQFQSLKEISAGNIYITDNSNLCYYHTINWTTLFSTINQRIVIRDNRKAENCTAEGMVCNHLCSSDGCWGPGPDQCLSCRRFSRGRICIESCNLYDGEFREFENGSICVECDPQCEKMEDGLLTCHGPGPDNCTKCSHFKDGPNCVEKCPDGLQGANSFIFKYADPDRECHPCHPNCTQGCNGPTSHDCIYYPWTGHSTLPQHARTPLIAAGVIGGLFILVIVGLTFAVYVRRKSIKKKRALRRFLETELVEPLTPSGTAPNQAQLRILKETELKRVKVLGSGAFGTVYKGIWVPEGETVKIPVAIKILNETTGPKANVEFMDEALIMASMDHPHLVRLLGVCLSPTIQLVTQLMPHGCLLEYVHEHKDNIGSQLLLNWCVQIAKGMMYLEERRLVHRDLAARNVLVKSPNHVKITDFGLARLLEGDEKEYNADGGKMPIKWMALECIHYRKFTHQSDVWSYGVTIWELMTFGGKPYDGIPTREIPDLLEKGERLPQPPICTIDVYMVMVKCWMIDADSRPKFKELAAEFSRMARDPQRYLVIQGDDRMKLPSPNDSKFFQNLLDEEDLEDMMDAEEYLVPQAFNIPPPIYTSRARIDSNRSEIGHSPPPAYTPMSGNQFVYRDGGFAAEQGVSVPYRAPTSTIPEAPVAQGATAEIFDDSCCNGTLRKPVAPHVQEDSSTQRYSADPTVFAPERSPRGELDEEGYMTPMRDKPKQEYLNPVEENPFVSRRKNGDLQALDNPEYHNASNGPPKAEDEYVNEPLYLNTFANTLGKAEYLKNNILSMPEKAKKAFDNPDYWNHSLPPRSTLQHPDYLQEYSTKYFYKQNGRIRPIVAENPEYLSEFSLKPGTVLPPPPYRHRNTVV

“NRG1 (recombinant human HRG-αEGF domain; R&D Systems) (from UniProt Q02297 177-241) (ligand)” gave an NRG1 EC50, luciferase reporter gene under a promoter containing a serum response element (SRE), CHO-K1 cells expressing ErbB4 with or without Fyn of 1 nM.

Reference: patent US20060029546A1, “Materials and methods for identifying anti-schizophrenic agents” (deCODE Genetics, Inc., priority 2004, published 2006)
